Test [1] has as its target H5 Hemagglutinin (HA, A/Vietnam/1203/2004 (H5N1), Protein Sciences Cat. No. 3006) (influenza A virus A/Vietnam/1203/2004 (H5N1)). Kind of test: SPR (Biacore), H5 coupled on CM5, 1:1 Langmuir model.
Test [2] has as its target Recombinant his-tagged HA1 from H7N7 strain A/Chicken/Netherlands/01/03 (Abcam Cat. No. ab61286) (Influenza A virus A/Chicken/Netherlands/01/03 (H7N7)).
In test [3] the target is recombinant his-tagged HA0 trimer from H5N1 strain A/Anhui/1/2005 (Abcam, Cat. No. ab53938) (influenza A virus A/Anhui/1/2005 (H5N1)). The test can be described thus: ELISA on recombinant haemagglutinin, detection with rabbit anti-NANOBODY serum.
Test [4] concerns the target recombinant his6-tagged haemagglutinin HA1, Abcam ab53875. The test is described as above.
Test [5] deals with Rabies virus glycoprotein G, Challenge Virus Standard (CVS)-11 strain (Rabies virus, strain CVS-11 (genotype 1 Lyssavirus)) (UniProt O92284). The test can be described thus: cell-based or functional assay.
Test [6] addresses Rabies virus glycoprotein G, ERA strain (attenuated vaccine strain, ATCC VR332) (Rabies virus, ERA strain (genotype 1 lyssavirus)) (UniProt P03524). Kind of test: cell-based or functional assay.
Substrate in test [7]: F protein of hRSV strain Long (human respiratory syncytial virus, strain Long) (UniProt P12568)
Kind of test: cell-based or functional assay.

Substrate in test [8]: F protein of hRSV strain B-1 (human respiratory syncytial virus, strain B-1 (ATCC VR-1580)) (UniProt P13843)
Kind of test: cell-based or functional assay.

Substrate in test [9]: F protein of hRSV strain Long (human respiratory syncytial virus, strain Long (ATCC VR-26)) (UniProt P12568)
Kind of test: cell-based or functional assay.

Substrate in test [10]: F protein of RSV A-2 (human respiratory syncytial virus, strain A-2) (UniProt P03420)
The test can be described thus: cell-based or functional assay.

Substrate in test [11]: F protein of RSV B-1 (human respiratory syncytial virus, strain B-1) (UniProt P13843)
The test can be described thus: cell-based or functional assay.

Substrate in test [12]: F protein of RSV Long (RSV LONG M-2) (human respiratory syncytial virus, strain Long) (UniProt P12568)
The test can be described thus: cell-based or functional assay.

20 molecules from patent publication US20200123233A1 can be followed below.

Changes are numbered by the printed parent chain. Bounds are passed on as bounds.

B1: LG202C8 (VHH)
VHH: EVQLVESGGGLVQPGGSLRLSCTGSGFTFSSYWMDWVRQTPGKDLEYVSGISPSGSNTDYADSVKGRFTISRDNAKNTLYLQMNSLKPEDTALYYCRRSLTLTDSPDLRSQGTQVTVSS
In the case of B1, in [1], the Kd (usually a measure of binding affinity in units of concentration) is 10 nM.

B2: 203H9 (VHH)
VHH: B1 VHH with S56G, K87Q
In test [1], B2 had a Kd of 15.5 nM.

B3: IV26 (yeast-produced NANOBODY (VHH sequence)) (VHH)
VHH: QVQLQESGGGLVRTGDSLRLSCAASGRTFNGYAMAWFRQAPGKGREFVAAVTWSSGTTNYAGSVKDRFTVSRDNANNTMYLQMNSLKPEDTAVYICGAASGYRSTDRLSDPAWTNYWGQGTQVTVSS
B3: in test [2], the ELISA titer (NANOBODY concentration giving extinction 1) was 80.6 ng/mL.

B4: IV155 (VHH)
VHH: QVQLQESGGGLVQAGGSLRLSCAASGRSLSRYAMGWFRQAPGKEREFVATKTSGGVTYYGASVKGRFTISRDNAKNMVYLQMNSLNPEDTAIYYCAAGTDAIFKPWMLPDYWGQGTQVTVSG
Regarding B4, the ELISA titer (NANOBODY concentration giving extinction 1) in [3] and in test [4] was above 10000 ng/mL each time.

B5: LG192A8 (VHH)
VHH: EVQLVESGGGLVQAGGSLRLSCAASERTVIAYTMGWFRRAPGKERDFVAAMNWNGGNTIYADSAKGRFTISRDNAKNTVYLQMNSLKAEDTAVYYCAARPRFWGSYEYDYWGQGTQVTVSS
In test [5], B5 returned a CVS-11 neutralizing antibody titer (RFFIT), IU/mg below 0.77 IU/mg; a CVS-11 neutralizing antibody titer (RFFIT), IU/ml below 0.5 IU/ml; a CVS-11 neutralizing antibody titer (RFFIT), IU/µM below 0.02 IU/µM; a CVS-11 neutralizing antibody titer (RFFIT), nM IC50 above 4840 nM. Besides, in test [6], the ERA neutralizing antibody titer (RFFIT): EU/mg is below 0.77 EU/mg, the ERA neutralizing antibody titer (RFFIT): EU/ml was below 0.5 EU/ml, the ERA neutralizing antibody titer (RFFIT): EU/µM is below 0.02 EU/µM and the ERA neutralizing antibody titer (RFFIT): nM IC50 is above 4840 nM. Besides, the hRSV micro neutralization, strain Long on Hep2 cells in test [7] is above 3 µM.

B6: LG192C10 (VHH)
VHH: EVQLVESGGGLVQAGGSLRLSCAASEGYFRNYMVGWFRQAPGGERMFVAAISDTAYYADSVKGRFTISRDNAKNTVYLPMNSLKPEDTAVYYCAAAPKSWGTWPLVADTRSYHFWGQGTQVTVSS
B6: the hRSV micro neutralization, strain Long on Hep2 cells in [7] was above 3 µM.

B7: LG192C6 (VHH)
VHH: EVQLVESGGGLVQAGGSLRLSCEASGRTERYQAMGWFRQAPGKEREFVAVVTRWSGARTVYADSVKGRFTISRDNAENTVYLQMNSLKPEDTAVYTCAADSTNRNRGAIYYTWAYDYWGQGTQVTVSS
As to B7, the hRSV micro neutralization, strain Long on Hep2 cells in test [7] was above 3 µM.

B8: LG192H2 (VHH)
VHH: B7 VHH with E29F, R30S, Y31N, Q32Y, A57G, R106S, I109W, Y117H
As to B8, the hRSV micro neutralization, strain Long on Hep2 cells in test [7] is above 3 µM.

B9: IV25 (yeast-produced NANOBODY (VHH sequence)) (VHH)
VHH: QVQLQQSGGGLVQSGGSLSLSCAASGITLNNRVVGWFRQAPGKEREFVGRIMWSVGDTFYARSVKGRFTISRDNAKNTMYLQMNALKPEDTAVYYCAAARDPDLYTGQYEYWGQGTQVTVSS
With B9, the ELISA titer (NANOBODY concentration giving extinction 1) in [2] was 27.8 ng/mL.

B10: IV1 (yeast-produced NANOBODY (VHH sequence)) (VHH)
VHH: QVQLQESGGGLVETGGSLRLSCAASGRTFGGYALAWFRQAPGKGREFVAAVTWTSGTTNYAGSVKDRFTVSRDNAGNTMYLQMNSLRPEDTAVYICGAASGYRSPDRLSEPNWVNYWGQGTQVTVSS
B10: in test [2], the ELISA titer (NANOBODY concentration giving extinction 1) came to 62.2 ng/mL.

B11: IV29 (yeast-produced NANOBODY (VHH sequence)) (VHH)
VHH: QVQLQESGGGLVQAGGSLRLSCVASGRTLDNYAMGWFRQAPGAEREFVGAISANGEDTQYTESVQGRFTISKDNAKSTVYLDMNSLKPEDTAVYYCAADRKTLTYYTSRLRSRYEYWGQGTQVTVSS
Take B11: in [2], the ELISA titer (NANOBODY concentration giving extinction 1) was 7.2 ng/mL.

B12: IV21 (yeast-produced NANOBODY (VHH sequence)) (VHH)
VHH: QVQLQQSGGGLVQAGGFLRLSCAASGRSFNTYAMGWFRQAPGKEREFVAGITRSGTATDYIDSVKGRFTISRDNARDTVYLQMNRLNPEDSAVYYCAAHANYDRMINSEYKYWGQGTQVTVSS
Turning to B12, in test [2], the ELISA titer (NANOBODY concentration giving extinction 1) amounted to 69 ng/mL.

B13: 203B12 (VHH)
VHH: EVQLVESGGGLVQPGGSLRLSCAASGFTFSSYAMGWVRRAPGEGLEWVSSISSGGALPTYADSVKGRFTISRDNVKNTLYLQMNSLKPEDTAVYSCEKYAGSMWTSERDAWGQGTQVTVSS
For B13, the Kd in [1] came out at 30 nM.

B14: IV37 (yeast-produced NANOBODY (VHH sequence)) (VHH)
VHH: QVQLQESGGGLVQAGDSLRLSCAAPGRSFSGGAMSWFRQVPGKEREFVAAIRWSGGGIRYADSVKGRFTISRDNAKNTFYLQMNSLKPEDTAVYYCAIDPRADLVATMTSIRYWGQGTQVTVSS
For B14, in [2], the ELISA titer (NANOBODY concentration giving extinction 1) turned out to be 31.4 ng/mL.

B15: IV5 (yeast-produced NANOBODY (VHH sequence)) (VHH)
VHH: QVQLQQSGGGLVQAGGSLRLSCAASGRTFSTTGMGWFRQAPGKEREFVAAFWWTGGQTFYADSVKGRFTISGDNAGNTVDLQMNSLKPEDTAVYACAAMSKPRNLWRTDSYDYWGQGTQVTVSS
Take B15: the ELISA titer (NANOBODY concentration giving extinction 1) in [2] is 30.7 ng/mL.

B16: NC41v06 (VHH)
VHH: EVQLLESGGGLVQPGGSLRLSCAASGGSLSNYVLGWFRQAPGKGREFVAAINWRDDITIGPPNVEGRFTISRDNAKNTLYLQMNSLRPEDTAVYYCGAGTPLNPGAYIYDWSYDYWGQGTLVTVSS
As for B16, in test [8], the Neutralization IC50 (nM), B-1 (first assay) was determined as 806 nM. In [9], the Neutralization IC50 (nM), Long (first assay) worked out at 111 nM.

B17: NC41v18 (VHH)
VHH: B16 VHH with A75S
As for B17, in [8], the Neutralization IC50 (nM), B-1 (first assay) is 728 nM and the Neutralization IC50 (nM), B-1 (second assay) worked out at 194 nM. Moreover, in test [9], the Neutralization IC50 (nM), Long (first assay) is 116 nM and the Neutralization IC50 (nM), Long (second assay) amounted to 98 nM.

B18: NC41 (VHH)
VHH: EVQLVESGGGLVQAGGSLSISCAASGGSLSNYVLGWFRQAPGKEREFVAAINWRGDITIGPPNVEGRFTISRDNAKNTGYLQMNSLAPDDTAVYYCGAGTPLNPGAYIYDWSYDYWGRGTQVTVSS
Take B18: in test [8], the Neutralization IC50 (nM), B-1 (first assay) is 4710 nM and the Neutralization IC50 (nM), B-1 (second assay) was 3290 nM. Further, in test [9], the Neutralization IC50 (nM), Long (first assay) amounted to 202 nM and the Neutralization IC50 (nM), Long (second assay) came out at 122 nM.

B19: RSVNC41 (VHH)
VHH: B18 VHH
For the molecule B19, the RSV neutralization IC50 (nM) (n = 2), A-2 in test [10] came out at 26 nM. Further, the RSV neutralization IC50 (nM) (n = 2), B1 in test [11] is 4000 nM. In [12], the RSV neutralization IC50 (nM) (n = 2), Long came out at 58 nM.

B20: NC41v03 (VHH)
VHH: B16 VHH with L20I, D55G, A75S
In the case of B20, in test [8], the Neutralization IC50 (nM), B-1 (first assay) was determined as 1510 nM. Besides, the Neutralization IC50 (nM), Long (first assay) in test [9] is 255 nM.
